The supplement of paper PMC10065799, “High-throughput profiling of sequence recognition by tyrosine kinases and SH2 domains using bacterial peptide display” (eLife, 2023)

Tested on: AncSZ
Test: phosphorylation enrichment, bacterial display (enrichment ratio); higher = better substrate or ligand; peptides without Tyr show the background
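Also: 11-residue human phosphosite peptides and single-mutation variants displayed on the E. coli surface, counted by deep sequencing, each peptide's frequency after selection divided by its frequency in the unselected input library; frequency after pTyr selection over input frequency; kinase dosed for 20-30% of maximal phosphorylation in three min.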

Sequence | phosphorylation enrichment
KVNKIYFPDFI [LIG3_Y767_YF] | 0.799
LLILEYAKYGS [RET_Y806_V804L] | 1.32
AAVDTVCRHNY [HLA-DRB1_Y107_Y107V] | 0.645
SSYSGYIMMPN [LEF1_Y114] | 0.858
LYNQDYPIHCV [GATM_Y227_S231C] | 0.811
SYCYRYRCAAW [SUMF1_Y344_R349W] | 0.707
LRRREYQRQDF [PRKRIP1_Y90_YF] | 0.603
PSQRHYVYYYS [PTEN_Y174_R173H] | 1.71
IETGKYEILTE | 1.18
RFLRGYRQDAY [HLA-A_Y137] | 1.15
VNFDYYTVNLG [GFPT1_Y367_D366Y] | 5.81
LTMAPYSSVSV [FAM81A_Y24_L29V] | 1.05
LTYHMYADPNF [SOS1_Y618] | 2.15
SFSGEYGGGGG [ZG16_Y30_YF] | 0.62
SDVCMYRKNTY [SYNE2_Y570_I574T] | 0.76
VIKDKYPKARY [APTX_Y209] | 0.728
FKGKKYKPLDL [RPL35_Y78_YF] | 0.577

Sequence | phosphorylation enrichment
CTTIHYNYMWN [TP53_Y234_C238W] | 1.21
VTAALYGCLFE [BTD_Y536_R538C_YF] | 1.3
KLIMECLPFGS [JAK2_Y931_Y931C_YF] | 1.24
IMNLLYHVVGW [GBA_Y412_T408M] | 0.963
GRIHSYRGHLW [VHL_Y112_R107G] | 0.585
PLFRKYWPNHI [GREB1L_Y1560_YF] | 1.17
QMVGMYASFFM [AVPR2_Y124_S127F_YF] | 1.88
ANAFIYVVQLP [L1CAM_Y420_YF] | 1.19
YGSGNYNVFGN [HNRNPA2B1_Y300_D302V] | 0.737
FGPPQYNIQFS [ERBB2IP_Y977_YF] | 0.768
SPPPAYTPMSG [ERBB4_Y1056] | 0.522
FDAHIYEGCVI [PRKCD_Y64_R67C] | 1.39
SGIYQYNIAKF [FOXL2_Y83_I84N] | 0.898
TGQERYRAITS [RAB11B_Y73_A68T] | 0.516
TRSYDYTEGGD [FGF7_Y58_M59T] | 0.898
LVMFIYVIFGM [SCN1A_Y1684_A1685V] | 0.694

Biological target: EPHB1 (UniProt P54762)
Sequence (P54762 whole entry, looked up): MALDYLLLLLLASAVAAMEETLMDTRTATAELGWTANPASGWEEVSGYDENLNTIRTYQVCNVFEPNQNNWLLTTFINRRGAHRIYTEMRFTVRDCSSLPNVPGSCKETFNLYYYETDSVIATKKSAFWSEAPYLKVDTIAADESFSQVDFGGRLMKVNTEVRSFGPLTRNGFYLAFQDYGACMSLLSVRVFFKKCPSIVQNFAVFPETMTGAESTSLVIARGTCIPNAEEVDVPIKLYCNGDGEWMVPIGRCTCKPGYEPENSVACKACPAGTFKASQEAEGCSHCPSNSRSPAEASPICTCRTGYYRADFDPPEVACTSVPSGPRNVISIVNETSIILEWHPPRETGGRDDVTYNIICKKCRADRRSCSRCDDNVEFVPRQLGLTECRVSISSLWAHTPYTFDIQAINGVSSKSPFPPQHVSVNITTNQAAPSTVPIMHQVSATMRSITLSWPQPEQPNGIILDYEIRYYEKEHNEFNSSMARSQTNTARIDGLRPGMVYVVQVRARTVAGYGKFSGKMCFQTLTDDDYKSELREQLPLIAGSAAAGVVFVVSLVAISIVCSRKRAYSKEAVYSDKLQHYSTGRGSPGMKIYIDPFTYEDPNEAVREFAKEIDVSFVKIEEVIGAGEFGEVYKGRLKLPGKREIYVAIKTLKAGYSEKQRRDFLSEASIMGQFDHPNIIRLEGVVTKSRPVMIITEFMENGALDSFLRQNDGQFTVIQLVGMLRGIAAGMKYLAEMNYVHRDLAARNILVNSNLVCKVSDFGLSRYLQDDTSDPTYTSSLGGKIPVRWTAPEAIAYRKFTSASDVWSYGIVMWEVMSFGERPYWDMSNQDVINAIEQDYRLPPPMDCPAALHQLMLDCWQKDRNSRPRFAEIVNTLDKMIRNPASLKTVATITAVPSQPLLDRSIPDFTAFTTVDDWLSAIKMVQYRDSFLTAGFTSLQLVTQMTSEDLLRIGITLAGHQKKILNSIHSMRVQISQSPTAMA
Test: as above

Sequence | phosphorylation enrichment
KVNKIYFPDFI [LIG3_Y767_YF] | 0.427
LLILEYAKYGS [RET_Y806_V804L] | 0.773
AAVDTVCRHNY [HLA-DRB1_Y107_Y107V] | 0.463
SSYSGYIMMPN [LEF1_Y114] | 0.923
LYNQDYPIHCV [GATM_Y227_S231C] | 0.614
SYCYRYRCAAW [SUMF1_Y344_R349W] | 0.445
LRRREYQRQDF [PRKRIP1_Y90_YF] | 0.549
PSQRHYVYYYS [PTEN_Y174_R173H] | 1.72
IETGKYEILTE | 0.684
RFLRGYRQDAY [HLA-A_Y137] | 0.43
VNFDYYTVNLG [GFPT1_Y367_D366Y] | 6.6
LTMAPYSSVSV [FAM81A_Y24_L29V] | 0.683
LTYHMYADPNF [SOS1_Y618] | 4.48
SFSGEYGGGGG [ZG16_Y30_YF] | 0.392
SDVCMYRKNTY [SYNE2_Y570_I574T] | 0.477
VIKDKYPKARY [APTX_Y209] | 0.376
FKGKKYKPLDL [RPL35_Y78_YF] | 0.421

Sequence | phosphorylation enrichment
CTTIHYNYMWN [TP53_Y234_C238W] | 1.12
VTAALYGCLFE [BTD_Y536_R538C_YF] | 0.916
KLIMECLPFGS [JAK2_Y931_Y931C_YF] | 0.969
IMNLLYHVVGW [GBA_Y412_T408M] | 4.93
GRIHSYRGHLW [VHL_Y112_R107G] | 0.387
PLFRKYWPNHI [GREB1L_Y1560_YF] | 0.589
QMVGMYASFFM [AVPR2_Y124_S127F_YF] | 3.06
ANAFIYVVQLP [L1CAM_Y420_YF] | 0.701
YGSGNYNVFGN [HNRNPA2B1_Y300_D302V] | 0.666
FGPPQYNIQFS [ERBB2IP_Y977_YF] | 0.524
SPPPAYTPMSG [ERBB4_Y1056] | 0.438
FDAHIYEGCVI [PRKCD_Y64_R67C] | 0.656
SGIYQYNIAKF [FOXL2_Y83_I84N] | 2.14
TGQERYRAITS [RAB11B_Y73_A68T] | 0.322
TRSYDYTEGGD [FGF7_Y58_M59T] | 0.439
LVMFIYVIFGM [SCN1A_Y1684_A1685V] | 0.496

Biological target: EPHB2 (UniProt P29323)
Sequence (P29323 whole entry, looked up): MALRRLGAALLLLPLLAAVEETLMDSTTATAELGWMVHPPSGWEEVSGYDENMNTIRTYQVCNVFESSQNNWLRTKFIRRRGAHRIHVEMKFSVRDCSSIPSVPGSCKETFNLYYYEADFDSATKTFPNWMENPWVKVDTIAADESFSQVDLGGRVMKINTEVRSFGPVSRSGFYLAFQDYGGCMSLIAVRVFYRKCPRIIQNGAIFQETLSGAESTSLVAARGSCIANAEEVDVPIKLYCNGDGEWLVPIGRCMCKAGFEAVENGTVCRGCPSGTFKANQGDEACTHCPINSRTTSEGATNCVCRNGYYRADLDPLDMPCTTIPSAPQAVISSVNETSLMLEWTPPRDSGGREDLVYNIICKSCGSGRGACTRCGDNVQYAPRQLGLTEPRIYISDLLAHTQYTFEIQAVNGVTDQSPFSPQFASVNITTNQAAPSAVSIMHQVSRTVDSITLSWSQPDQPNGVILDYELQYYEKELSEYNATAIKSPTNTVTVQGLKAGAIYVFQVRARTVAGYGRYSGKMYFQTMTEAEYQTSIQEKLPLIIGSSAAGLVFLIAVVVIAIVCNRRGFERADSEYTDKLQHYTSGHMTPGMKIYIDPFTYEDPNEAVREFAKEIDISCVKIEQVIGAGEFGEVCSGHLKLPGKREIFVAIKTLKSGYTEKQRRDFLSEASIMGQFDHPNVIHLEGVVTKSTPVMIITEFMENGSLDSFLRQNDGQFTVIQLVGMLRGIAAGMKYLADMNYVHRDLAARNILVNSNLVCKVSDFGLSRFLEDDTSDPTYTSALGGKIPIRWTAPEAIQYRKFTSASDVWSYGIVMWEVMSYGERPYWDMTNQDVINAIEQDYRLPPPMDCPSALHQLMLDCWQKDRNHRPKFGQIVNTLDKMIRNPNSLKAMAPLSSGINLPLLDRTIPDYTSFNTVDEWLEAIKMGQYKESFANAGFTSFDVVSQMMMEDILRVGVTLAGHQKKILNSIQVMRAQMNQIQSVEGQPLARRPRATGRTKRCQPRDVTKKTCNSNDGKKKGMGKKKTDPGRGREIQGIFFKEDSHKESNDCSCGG
Test: as above

Sequence | phosphorylation enrichment
KVNKIYFPDFI [LIG3_Y767_YF] | 0.399
LLILEYAKYGS [RET_Y806_V804L] | 0.649
AAVDTVCRHNY [HLA-DRB1_Y107_Y107V] | 0.429
SSYSGYIMMPN [LEF1_Y114] | 1.09
LYNQDYPIHCV [GATM_Y227_S231C] | 0.592
SYCYRYRCAAW [SUMF1_Y344_R349W] | 0.453
LRRREYQRQDF [PRKRIP1_Y90_YF] | 0.559
PSQRHYVYYYS [PTEN_Y174_R173H] | 0.953
IETGKYEILTE | 0.601
RFLRGYRQDAY [HLA-A_Y137] | 0.432
VNFDYYTVNLG [GFPT1_Y367_D366Y] | 5.41
LTMAPYSSVSV [FAM81A_Y24_L29V] | 0.531
LTYHMYADPNF [SOS1_Y618] | 6.29
SFSGEYGGGGG [ZG16_Y30_YF] | 0.467
SDVCMYRKNTY [SYNE2_Y570_I574T] | 0.519
VIKDKYPKARY [APTX_Y209] | 0.417
FKGKKYKPLDL [RPL35_Y78_YF] | 0.361

Sequence | phosphorylation enrichment
CTTIHYNYMWN [TP53_Y234_C238W] | 0.746
VTAALYGCLFE [BTD_Y536_R538C_YF] | 1.03
KLIMECLPFGS [JAK2_Y931_Y931C_YF] | 0.588
IMNLLYHVVGW [GBA_Y412_T408M] | 2.71
GRIHSYRGHLW [VHL_Y112_R107G] | 0.392
PLFRKYWPNHI [GREB1L_Y1560_YF] | 0.498
QMVGMYASFFM [AVPR2_Y124_S127F_YF] | 2.27
ANAFIYVVQLP [L1CAM_Y420_YF] | 0.743
YGSGNYNVFGN [HNRNPA2B1_Y300_D302V] | 0.797
FGPPQYNIQFS [ERBB2IP_Y977_YF] | 0.44
SPPPAYTPMSG [ERBB4_Y1056] | 0.429
FDAHIYEGCVI [PRKCD_Y64_R67C] | 0.639
SGIYQYNIAKF [FOXL2_Y83_I84N] | 1.56
TGQERYRAITS [RAB11B_Y73_A68T] | 0.291
TRSYDYTEGGD [FGF7_Y58_M59T] | 0.465
LVMFIYVIFGM [SCN1A_Y1684_A1685V] | 0.615

Biological target: FGFR1 (UniProt P11362)
Sequence (P11362 whole entry, looked up): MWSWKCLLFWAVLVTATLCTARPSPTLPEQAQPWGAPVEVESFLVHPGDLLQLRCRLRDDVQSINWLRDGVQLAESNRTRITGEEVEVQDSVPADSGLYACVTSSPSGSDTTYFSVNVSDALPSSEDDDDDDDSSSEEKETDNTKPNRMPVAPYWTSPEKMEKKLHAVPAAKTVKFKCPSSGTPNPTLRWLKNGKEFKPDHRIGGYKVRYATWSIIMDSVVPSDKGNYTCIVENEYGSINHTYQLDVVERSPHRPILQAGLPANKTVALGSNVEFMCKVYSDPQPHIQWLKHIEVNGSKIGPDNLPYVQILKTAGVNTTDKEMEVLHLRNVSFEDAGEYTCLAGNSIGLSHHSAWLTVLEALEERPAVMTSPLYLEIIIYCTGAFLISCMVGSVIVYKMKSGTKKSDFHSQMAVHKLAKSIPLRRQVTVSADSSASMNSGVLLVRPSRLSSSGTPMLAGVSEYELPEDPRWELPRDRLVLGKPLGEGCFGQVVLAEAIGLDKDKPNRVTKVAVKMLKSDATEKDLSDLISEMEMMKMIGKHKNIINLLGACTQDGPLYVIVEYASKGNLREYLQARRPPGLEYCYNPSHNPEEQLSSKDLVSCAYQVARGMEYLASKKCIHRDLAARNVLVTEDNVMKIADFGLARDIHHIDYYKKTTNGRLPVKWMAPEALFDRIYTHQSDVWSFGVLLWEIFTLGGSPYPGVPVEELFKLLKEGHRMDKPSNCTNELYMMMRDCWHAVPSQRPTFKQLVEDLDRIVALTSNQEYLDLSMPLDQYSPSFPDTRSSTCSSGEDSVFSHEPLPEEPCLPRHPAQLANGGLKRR
Test: as above

Sequence | phosphorylation enrichment
KVNKIYFPDFI [LIG3_Y767_YF] | 1.24
LLILEYAKYGS [RET_Y806_V804L] | 0.547
AAVDTVCRHNY [HLA-DRB1_Y107_Y107V] | 0.612
SSYSGYIMMPN [LEF1_Y114] | 3.79
LYNQDYPIHCV [GATM_Y227_S231C] | 2.66
SYCYRYRCAAW [SUMF1_Y344_R349W] | 0.532
LRRREYQRQDF [PRKRIP1_Y90_YF] | 0.699
PSQRHYVYYYS [PTEN_Y174_R173H] | 9.38
IETGKYEILTE | 0.519
RFLRGYRQDAY [HLA-A_Y137] | 0.677
VNFDYYTVNLG [GFPT1_Y367_D366Y] | 15.6
LTMAPYSSVSV [FAM81A_Y24_L29V] | 0.653
LTYHMYADPNF [SOS1_Y618] | 4.45
SFSGEYGGGGG [ZG16_Y30_YF] | 0.496
SDVCMYRKNTY [SYNE2_Y570_I574T] | 0.429
VIKDKYPKARY [APTX_Y209] | 0.44
FKGKKYKPLDL [RPL35_Y78_YF] | 0.376

Sequence | phosphorylation enrichment
CTTIHYNYMWN [TP53_Y234_C238W] | 1.21
VTAALYGCLFE [BTD_Y536_R538C_YF] | 0.602
KLIMECLPFGS [JAK2_Y931_Y931C_YF] | 0.576
IMNLLYHVVGW [GBA_Y412_T408M] | 6.14
GRIHSYRGHLW [VHL_Y112_R107G] | 0.363
PLFRKYWPNHI [GREB1L_Y1560_YF] | 0.505
QMVGMYASFFM [AVPR2_Y124_S127F_YF] | 0.676
ANAFIYVVQLP [L1CAM_Y420_YF] | 0.538
YGSGNYNVFGN [HNRNPA2B1_Y300_D302V] | 0.539
FGPPQYNIQFS [ERBB2IP_Y977_YF] | 0.447
SPPPAYTPMSG [ERBB4_Y1056] | 0.41
FDAHIYEGCVI [PRKCD_Y64_R67C] | 0.563
SGIYQYNIAKF [FOXL2_Y83_I84N] | 0.659
TGQERYRAITS [RAB11B_Y73_A68T] | 0.423
TRSYDYTEGGD [FGF7_Y58_M59T] | 0.61
LVMFIYVIFGM [SCN1A_Y1684_A1685V] | 0.583
